Source: the supplement of paper PMC12636428

Test system: Saccharomyces cerevisiae
Assay: transcriptional activation domain activity (GFP:mCherry ratio, weighted mean of sorted bins, harmonized to initial dataset scale) (arbitrary fluorescence ratio units); higher = stronger transcriptional activation
Conditions: beta-estradiol 1 µM; induction time 4 h
In short: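 Barcoded protein tiles fused to an estradiol-inducible synthetic transcription factor were integrated at the yeast URA3 locus, in diploids carrying a GFP reporter. Cultures were diluted 1:5 into SC with 1 uM beta-estradiol, held 4 hours at 30 °C, sorted into 8 bins by GFP:mCherry ratio, and barcodes sequenced. Tiles under 50 reads were discarded. Activation activity is the read-weighted mean of bin median fluorescence, averaged across barcodes, then linearly mapped onto the initial dataset scale.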

Sequence	transcriptional activation domain activity
RAPRTSPHQHKPAPVPAAALARTSPHPRQHQHQHASRAPPAASPHPRQHQEHQ	31300
KPATTTASSAQPSTTASATPGGLFGGGAQSGSSTPAGGLFGAKPAAAPSPAPA	44900
STATESGLAARSKDQIFCIPVPGQPWVDVRLRTLSESINSLLLLATLIKRCPV	59300
KGETAFVEVDEFNRRKDGKEEGGVHNSDMVIKVYLPPHFRVRIALFVLAIWAF	23800
QSLENQTTETIDVSPDKHRLLIGRGGETRRAIESKFKVQLDIPKQTATGAARN	64100
FRSFVLMRLLVPIPAYFVLSCMFSMINLPFKLSFGGMGYGYGAGFMIWWCFTF	65100
CCLLRTLGRFLLFIIFSPSLSTSSFQTLPLTLPFYLLSIFTKKPLYPIPFLCI	44800
DKATMRRAFFERIVTERINIMGKMSISLIHSLIVDCMFLSTARSFLWLLWAYV	56300
MTEQAPTIRTAEKDTEGPAKRRRRPALSCVECRSRKVRCDRGKPCRACTRVRS	26200
QRNPGSRAVIVKPILHVYLEGAPGSLTTRNDSVVGLLVVQLSISLANALAMKA	22900
CKRCSTLTCVGCGSRPLEKKLATEINVQGTKLTWCCSRGRLFVIWAILCGFDQ	43900
SGFRDNRKDNRGRGRDRGNRRDNRGNDRNREREDKEKAESKDVKSEDAPVKTE	28100
DVYNEGHICNHSDDEGRYAYKYQPTMILYAIRALLRSLSVLIGAEEELGNAVA	36400
NRVIGVQGKNQEGACYEKLSPSSTSVSVGMDFCSLENFVTAESLPDLLNLFWE	111000
KSNDSSAEKDTRSMVFCETEKVSYTGANFGEDAARDVHCKYLVGVYSKSQKQL	37900
MFCLRSWLPLLFIPTNASPIFIFLFFICTYFLNRPCVYCSFLLLILFASSCHW	48400
MLLLKCSLSWIIRKGIYRAKSVMYLWVVANECCSLSMAEWLFLHQSVCSICQC	58100
LFCFLHYNLLPLPLLLYHLLLAHHILLQLNLDPFLPLLPLLPFLPLLFLLCHL	36000
SGLVIIFFMITRYFTATAEHLDHLSRCKVHNVPPYSYVFWICILGLELLLCSL	48600
KDDRDDRDRRGGDDRREDREERRGGEDRGEDRGGEGRRDSRQEGGANREPSPS	23700
MRWNRIIIGSHVSVLWMIGYVFTLLLTLVPSPLLEFRYFILPFIFFCIHLPPP	48100

Sequence	transcriptional activation domain activity
LFICRYTSDGQFIGNQNGCYNLVPVYDWIKRCVISIFVVFFIAFLPLFLQELC	56900
NNGKGQGKRRASSSALAAEKMVEKEAWLRSPKAVCTLSIAVMRSALHLMNAHL	67700
MWCTRWVLPFLLLPAPTSPPYFVLIFLLSLVMHARPCIYCIFFLIMLFITSNY	47000
LQAARSADIAISQFRYLKKLLLVHGAWSYRRLATLILYSFYKNVVLYMTQFWF	65100
MHCRDIMRFNEMELAKLRLLLGSNCQALRNTASLLSRNLACSKIIYLSVRLGE	21000
LGILLLLFDWRVLFNAAQMSCALHESCIALSVMKARNQEWKWWCLGSTYYVYE	44100
RGATPGRKPAAGGPRESAARAARGRGKGGGTGGEGRGRGRARGRGRTRGKRRT	54900
KSSEAAPAEENKPSPEKNGKGKQGEDKGGNNGKENKGGDKGGGKGAQSKKGKK	31600
MAKGGAKDKKSVEKKGADKGKGKSDEAADKGSKGKGGLKAATAVNVRHILCEK	23500
SVSRDRGAFEWAGDNLMTVFCQPYRLVDPEMWCLLYDVLRFNACCRSIIATPY	63900
EAKEGEDGEKEKPKRGRKRKEPAADAEDEAADGDAADGEEPPAKKAKPASKAA	61800
MVPPRRESAATGASQRAAIACQSCRLRKVKCDAESAASDQGCTPCRRARQECV	26600
ILAGCCLGYACNKWGSITVFKYYGIPWLFLNHWFVMITYLHHTDPTIPHYRGK	73500
ILVLIVSNLRLMIENFRKYGVLICIRCHDYRRQDVVYGSILYFLVPCHLFVAY	51300
NNLNITGYEWISSELRDDALLSAVTLQGHHLGHTQPQEISLEENSNVVSGEEH	59600
FREELVHFFKDPNFDPKLAFESSSYIVNHVLKLTLVMWRYLLVKVEHSFLIAM	59800
LTDWNVVSNKPITGPADPNEDVYIGRSETAMWMRVVSSWVCMLLYSWSLLAPV	68000
MVVSLLIIRCHSTASSNRWLLLGYGLHFLIRFFYLITMLLITRLNFVLSFFAA	81000
HHFVCAFYFQDSWGLGLMKRLLIVVCLLLATYVFPLPLTSPPWSFIWKQSWVI	48300
QCAYVLEHCMDATPGIFNYIQLYYCSPVRPLVFVLLCAWLLFLFGFVGIAASD	23300
MVLLCAYERGLGLDIGVSGFVSFFSFLTLFFFFPIYLFFSLLYFLCVCLLCCA	49700

Sequence	transcriptional activation domain activity
MFCLRSWIPVLFFLLRTNASPVYLILSISATYFLNRPCVYCSLLLFILVVALF	57600
MNFFFCMRSWTLLCYPKTGLLFFILCFFSSALSILSPPPCIFFFFFFLSRVCC	45100
MAPPFLGHFFGLYPSIMIRFPCLLLYRFATVYLGVLLFPFSILFFILFIFYFF	34200
SDEEEAEVIPAKKARGKKAPVKQEEIQSDEEVLTAKKPAKQARGKKAPAAAVK	30600
SVASEKGADDSAEEDHEHEHRHKKRRHREHREREHRSSRHKHRSSRRHAEEVD	21000
KKGGKAAKSADRPPSRSRLEEEYVFIDVVSSFLRAIRARVIHIRHGAIVLAHY	64100
LKKHDVNALVTVICNFLICITMALCVVWDSELLPDCLFRVKLIYTLITLGFLC	63400
MIRDTPKSPSHPPSARSSSSRASSTTSCLSSTSTPAARTSSSSTTARTPVPRP	28600
SPMGSGSDEEEEERRRKRRKEKKRSKKSKRERSGSLSGSGSEGGGGKRKRHQD	36000
EVEAAIAAAAAEVEKVEVKAKAKAEAAAAAAAAAEAAAAAEARAAAAAAAQAA	30700
LWTCLLITLILPSPLFSSLFFPSPLFSFLLCLFFTFYLSFPSLFLSCPPPFAG	51800
KIHIANMAQVAVFLLHKILYGIIPLFEISTCAYFPLLISLWHLNYLLFYTVMF	63200
SVRHWELRVRAKYGRVLCRFLAQIEFDPFLLSDSSKRAILTVLRAVADIMVEC	42400
QHMAQSAQSVMGLEDHNAYGDPDSASRKRSKVSRACDECRRKKVRPRRPANGV	25800
VLICAHGQQQMGSGVFLGQDLLSRARMESIFCRSTVPVIVITTAYCSGLWAVP	55900
MSKRAAEGSDSAGSSKKVKQDDSASTVFQKDEEGNLYVDLSSMKRATVSVFRG	60400
GKKGSSGAKKGGKKGSSTGAKEEVAKKPSIEKSGEKKSEGGEKKENDEKKNDK	37900
GDAPASFHSFCVVRVFMDVCWLGKRLCLKVLNMDPTCPWLMLLLLKATRLHLS	65300
MDGEPANPAVSAPTTRRRRRRPALVCEQCRVRKIKCDRGSPCSKCARGRRSHL	42000
AAARAPHVAPAPPDARPKSKKRKSSSPDDGRAPAKSRRLSPARAAPAKPKHRR	12300
VFFMPSMCSGYLWISLCYLSFWTNMREWRLKRKVVWFLCLFWVFMCCLLFYLT	34700

Sequence	transcriptional activation domain activity
NEEEEEASDHEAEEPKPKKKRGRLAKEVDEEPEAPAPKKARGRPRKAVVKEED	24400
HNLFELVFLDQMCGFCCFSMRFVVMLDLIGTIILPSTVIYLVYIIIAAVLKFQ	38600
VWEMCLVVGMGSELDVLYRVNNTVFVGCFCLARLTIVLLFAMSMLYLPMFRRD	61200
EEEEQAKTSPAKSESKKEKKDKKKKRSADEIESGPEGTPKVAKKIKADSGAAV	42700
YSMPSEICIVGFSGVNTAFIVSLLVDLGFQASPIYSMYMFFLTWRFCARLVHY	66500
KFLRHVLLKYFSFRLRSWMLNWAIGCVVRLFFFILHLLHPSWIFFLIYPYILN	54400
MGLRTTPDYQKVEFTVTDIGLILKTLWICADLITFLFPLQRLVFHALVLLFSF	62300
DESINGSEMPDFSLDLVSNDRQTGLEALDYDIHNYFPQHSERLTAEKIDTSAC	76700
MQGGRLVIYLYYFLMEVFNVLFFLFLFRCWSLLPSALGGGLCYLFLVWGLLFC	67000
MSPPCIVLKHLLFFLFSFHRILLQPVRRPSCFHISLYVLVVRLYWFRGILDFC	38300
NGFCYSAITGGSIVLLLPGWYVFFYSLELQSRSMLCGSIRLGWAIIYAFFLGF	58900
MCLLCHATLFSSCPYFSIFLVFSFFSFFSLFFFTSFLSLLLFMSLLPTYYHLY	43500
DNMDSDFLSRTPNYNAFSLEATSHNPADNANELGSQSNRETNSPSVFYPQANT	22500
QFSWNVCFMVFLFLFLFLFLCFVCFTLLCLSKMLHNVLHYNFILCFLSSFCFV	52400
TATKPTESKPVETKTDAAAAGKSTTPANGSGSASATKPAETASTTEKKKKNRL	30400
GTGEEEEETTKHIVRKRGGGRGGRGKQESEQEWESEEEEEGTGEEEETTKQRT	39000
RHYCYIIVLKSLMYESPRIIGFAWKPEEGHFFNKVMYRTFVGLLMLLQVLLVG	55900
HSSAPASPASPSPNSAPTPPATTPPPPPSPAAPRRTHSPPTPGTRRPSTTTPS	53500
AYMREMCVCLRDLFEALGCNKLTTLRIMLYNDAYCLGQSPTFRIRYLMSQLEP	49600
EREEEEEEEEEEEEVVVVAKAKANEREREEEAEEAEEVEEVVAKSRKAKGKAK	16600
